pKd: −log10 of the molar value. Where two headings read alike, the source gives them in different places.
Legend:
PGT145 IgG (human) [1] = assay: BLI; Octet Red; PGT145 IgG (8 µg/mL) loaded on anti-human IgG Fc capture biosensors; twofold dilution series of SOSIP trimer as analyte; 3 min association, 3 min dissociation; PBS pH 7.4, 0.1% BSA, 0.005% Tween 20, 0.02% NaN3; 1:1 binding model; averages of at least two independent experiments
PGT145 IgG (human) [2] = assay: as above; remark: listed apart in the source

PGT145 IgG (human), sequence (heavy, as listed by the source, chain 1 of 2): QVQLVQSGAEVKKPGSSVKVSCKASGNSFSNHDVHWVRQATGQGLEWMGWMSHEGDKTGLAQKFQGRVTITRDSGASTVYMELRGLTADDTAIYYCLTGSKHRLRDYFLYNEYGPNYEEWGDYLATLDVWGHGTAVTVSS
PGT145 IgG (human), sequence (light, as listed by the source, chain 2 of 2): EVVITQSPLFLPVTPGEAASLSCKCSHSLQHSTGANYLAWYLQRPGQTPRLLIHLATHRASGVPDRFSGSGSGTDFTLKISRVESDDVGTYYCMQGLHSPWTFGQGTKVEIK

| Substance | pKd (PGT145 IgG (human) [1]) | koff (PGT145 IgG (human) [1]) [s⁻¹] | kon (PGT145 IgG (human) [1]) [M⁻¹ s⁻¹] | pKd (PGT145 IgG (human) [2]) | koff (PGT145 IgG (human) [2]) [s⁻¹] | kon (PGT145 IgG (human) [2]) [M⁻¹ s⁻¹] |
| --- | --- | --- | --- | --- | --- | --- |
| BG505 SOSIP.664 Env trimer (complex) | 7.81 | 0.00185 | 129000 | 7.80 | 0.00177 | 120000 |
| BJOX2000 SOSIP.664 Env trimer (complex) | – | – | – | 7.56 | 0.00152 | 66700 |
| CNE8 SOSIP.664 Env trimer (complex) | – | – | – | 7.29 | 0.00419 | 83400 |
